Results reported in patent US20020160013A1 (RECEPTRON, published 2002).

Tests used:
Assay in all cases: cell-based or functional assay
[1] = target: Leptin Receptor, long form (UniProt P48357)
[2] = target: Leptin Receptor, long form, P48357
GLUT4 = target: T1, GLUT4 (rat, UniProt P19357 1-509)
T1 sequence (looked up): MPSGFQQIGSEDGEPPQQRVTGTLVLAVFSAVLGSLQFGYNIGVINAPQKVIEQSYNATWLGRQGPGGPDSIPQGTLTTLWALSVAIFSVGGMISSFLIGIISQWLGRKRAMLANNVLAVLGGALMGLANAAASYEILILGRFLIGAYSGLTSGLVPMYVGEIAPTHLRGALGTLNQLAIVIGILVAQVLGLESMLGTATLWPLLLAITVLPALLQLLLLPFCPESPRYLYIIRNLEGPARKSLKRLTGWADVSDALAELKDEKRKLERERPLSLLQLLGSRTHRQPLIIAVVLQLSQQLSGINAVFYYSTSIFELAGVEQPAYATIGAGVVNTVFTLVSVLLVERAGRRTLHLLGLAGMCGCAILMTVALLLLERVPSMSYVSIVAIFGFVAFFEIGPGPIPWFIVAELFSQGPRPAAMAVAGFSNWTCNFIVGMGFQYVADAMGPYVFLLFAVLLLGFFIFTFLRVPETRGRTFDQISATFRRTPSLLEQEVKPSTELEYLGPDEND

human insulin receptor = human insulin receptor (human, UniProt P06213 28-1382)
[3] = target: mutated form of the insulin receptor, deletion of residues 713 to 740 (human, UniProt P06213 28-1382)

Chain of Leptin Receptor, long form, P48357 (P48357 22-1165): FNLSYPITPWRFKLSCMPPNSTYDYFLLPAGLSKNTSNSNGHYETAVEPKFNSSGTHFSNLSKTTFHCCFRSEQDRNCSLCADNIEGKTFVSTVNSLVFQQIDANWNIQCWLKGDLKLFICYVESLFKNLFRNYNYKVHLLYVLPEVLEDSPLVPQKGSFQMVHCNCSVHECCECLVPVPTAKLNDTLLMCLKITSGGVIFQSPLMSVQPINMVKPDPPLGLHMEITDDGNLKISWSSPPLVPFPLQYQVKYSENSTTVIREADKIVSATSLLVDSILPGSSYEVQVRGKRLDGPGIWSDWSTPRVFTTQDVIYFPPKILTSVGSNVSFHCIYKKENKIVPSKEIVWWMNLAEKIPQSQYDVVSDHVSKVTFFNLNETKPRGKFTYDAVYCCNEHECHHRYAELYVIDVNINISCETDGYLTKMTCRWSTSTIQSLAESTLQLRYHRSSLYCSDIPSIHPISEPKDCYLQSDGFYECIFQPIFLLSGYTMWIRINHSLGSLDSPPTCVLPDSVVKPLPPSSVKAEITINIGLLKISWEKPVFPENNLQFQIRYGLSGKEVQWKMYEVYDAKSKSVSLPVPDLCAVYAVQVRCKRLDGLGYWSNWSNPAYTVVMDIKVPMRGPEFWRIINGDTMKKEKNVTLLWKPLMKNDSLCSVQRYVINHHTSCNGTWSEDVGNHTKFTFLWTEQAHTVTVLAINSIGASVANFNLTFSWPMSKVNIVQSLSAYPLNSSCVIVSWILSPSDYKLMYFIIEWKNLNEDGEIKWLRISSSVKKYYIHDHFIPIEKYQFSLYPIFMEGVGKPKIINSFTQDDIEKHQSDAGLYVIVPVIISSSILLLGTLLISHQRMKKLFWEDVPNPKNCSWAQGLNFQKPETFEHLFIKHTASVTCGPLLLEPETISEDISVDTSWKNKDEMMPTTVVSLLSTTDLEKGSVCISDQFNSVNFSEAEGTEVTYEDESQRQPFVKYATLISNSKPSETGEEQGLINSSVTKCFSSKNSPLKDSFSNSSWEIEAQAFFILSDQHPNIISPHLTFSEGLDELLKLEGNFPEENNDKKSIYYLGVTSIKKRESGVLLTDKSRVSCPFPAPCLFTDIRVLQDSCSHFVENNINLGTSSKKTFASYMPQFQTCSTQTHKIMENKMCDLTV
Chain of Leptin Receptor, long form (P48357 22-1165): as above

Row | Molecule | percent internalized receptor at 5 min with 10 µM peptide (125I-insulin, acid wash) (human insulin receptor) | percent internalized receptor at 15 min with 10 µM peptide (125I-insulin, acid wash) (human insulin receptor) | percent internalized receptor at 30 min with 10 µM peptide (125I-insulin, acid wash) (human insulin receptor) | percent internalized receptor at 60 min with 10 µM peptide (125I-insulin, acid wash) (human insulin receptor) | percent internalized receptor at 5 min with 10 µM peptide (125I-insulin, acid wash) [3] | percent internalized receptor at 15 min with 10 µM peptide (125I-insulin, acid wash) [3] | percent internalized receptor at 30 min with 10 µM peptide (125I-insulin, acid wash) [3] | percent internalized receptor at 60 min with 10 µM peptide (125I-insulin, acid wash) [3] | other results
1 | Leptin (from UniProt P41159 22-167) (ligand) |  |  |  |  |  |  |  |  | activation (phosphorylation) of JAK2 with 1 ng/ml of OB alone, quantified western blot (arbitrary units) [1]: 2
2 | KKENKIVPSKEIVWWMNLAEKIP [Leptin Receptor derived peptide] |  |  |  |  |  |  |  |  | activation (phosphorylation) of JAK2 with 1 ng/ml of OB and 30 µM LRp together, quantified western blot (arbitrary units) [2]: 16; activation (phosphorylation) of JAK2 with 30 µM LRp alone, quantified western blot (arbitrary units) [2]: 8
3 | TWLGRQGPEGPSSIPPGTLTTLW [GLUT4pep] |  |  |  |  |  |  |  |  | enhancement of glucose uptake in rat adipose cells, 10 nM insulin + GLUT4pep (GLUT4): 24 fold
4 | KTDSQILKELEESSFRKTFEDYLH [Insulin receptor derived peptide] | 6% | 2% | 6% | 2% | 5% | -2% | 0% | 2% | enhancement of glucose uptake in rat adipose cells, insulin + 10 µM pepIR (GLUT4): 12 fold
5 | GNEQSFRVDLRTLLRYAGGGNEQSFRVDLRTLLRYA [DS-A85] | 5% | 9% | 14% | 17% | -1% | 0% | 2% | 1% | 
